Experiments:
[1] = target: T1, recombinant human G-CSF (Genscript) (human, UniProt P09919-2 31-204, limits assumed); experiment: SPR (Antigen binding (SPR)); antibody captured on an anti-Fc surface, antigen flowed over; column head Koff (10-4 x s-1)
T1 construct: also called hG-CSF; granulocyte colony stimulating factor
T1 sequence (looked up): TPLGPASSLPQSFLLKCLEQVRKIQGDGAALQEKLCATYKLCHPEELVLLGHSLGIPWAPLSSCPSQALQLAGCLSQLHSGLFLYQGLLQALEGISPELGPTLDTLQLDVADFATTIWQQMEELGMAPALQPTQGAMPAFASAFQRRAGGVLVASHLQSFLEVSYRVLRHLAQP

[2] = target: T1, recombinant human G-CSF (Genscript); experiment: SPR (ProteOn), supernatant captured on anti-mouse Fc, human G-CSF analyte, average of two injections
Procedure: (§1) Affinities of clones 2F6, 1B11, 3G5, 10B9, 9B7, 10G1, and 3B3 were measured by SPR. The work was carried out at the National Research Council of Canada (Montreal, Quebec).
(§2) 2.5% supernatants (except variants 1B11.2 and 10B9.1.2 used 4%) were captured on an anti-mouse Fc antibody, flowed with a 30, 10, 3.33, 1.11, and 0.37 nM concentration series of human G-CSF with buffer blank. Association (ka) and dissociation (kd) rates were measured using a BioRad ProteOn™ instrument. Affinity (KD) was calculated as […].

[3] = target: T1, recombinant human G-CSF (Genscript); experiment: SPR (ProteOn), supernatant captured on anti-mouse Fc, human G-CSF analyte, injection #2
Procedure: as §1, §2

[4] = target: T1, recombinant human G-CSF (Genscript); experiment: SPR (Antigen binding (SPR)); antibody captured on an anti-Fc surface, antigen flowed over
[5] = target: T1, recombinant human G-CSF (Genscript); experiment: SPR (ProteOn), supernatant captured on anti-mouse Fc, human G-CSF analyte, injection #1
Procedure: as §1, §2

B1: anti-G-CSF antibody clone 1B11 (antibody, V domains shown)
VH: QVHLQQSGAELARPGASVKMSCKASGYTFPIYTMHWIKQRPGQGLEWIGYINPSIGYANYNQKFRDKATLTADKSSSTAYMQLSSLTSEDSAVYYCARGGYGDSLFAYWGQGTLVTVSA
VL: DIVMTQAAFSNPVTLGTSASISCRSSKSLLHSNGITYLYWYLQKPGQSPQLLIYQMSNLASGVPDRFSSSGSGTDFTLRISRVEAEDVGVYYCAQNLELPYTFGGGTKLEIK
notes: Mouse hybridoma monoclonal antibody; also called 1B11.2; 3A3
- koff [1]: 5e-05 s⁻¹
- Kd [2]: 0.064 nM
- Kd [3]: 0.0622 nM
- koff [3]: 4.72e-05 s⁻¹
- kon [3]: 758000 M⁻¹ s⁻¹
- Kd [4]: 0.06 nM
- Kd [5]: 0.0663 nM
- koff [5]: 5.15e-05 s⁻¹
- kon [5]: 777000 M⁻¹ s⁻¹

B2: 1B11 antibody variant 1 (cL/cH) (antibody, V domains shown)
VH: QVHLQQSGAELARPGASVKMSCKASGYTFPIYTMHWIKQRPGQGLEWIGYINPSIGYANYNQKFRDKATLTADKSSSTAYMQLSSLTSEDSAVYYCARGGYGDSLFAYWGQGTLVTVSA
VL: DIVMTQAAFSNPVTLGTSASISCRSSKSLLHSNGITYLYWYLQKPGQSPQLLIYQMSNLASGVPDRFSSSGSGTDFTLRISRVEAEDVGVYYCAQNLELPYTFGGGTKLEIK
notes: also called clone 1; chimeric 1B11
- koff [1]: 0.00012 s⁻¹
- Kd [4]: 0.1 nM

B3: anti-G-CSF antibody clone 3B3 (antibody, V domains shown)
VH: QVQLQQSGAELARPGASVKMSCKASGYTFTPYTMHWVKQRPGQDLEWIGYINPSINYTNYNQKFKDKATLTADKSSSTAYMQLSSLTSEDSAVYFCARRGSYGNFDYWGQGTTLTVSS
VL: DIVMTQAAFSNPVTLGTSASISCRSNKSLLHSNGITYLYWYLQKPGQSPQLLIYQMSNLASGVPDRFSSSGSGTDFTLRISRVEAEDVGVYYCAQNLELPLTFGAGTKLELK
notes: Mouse hybridoma monoclonal antibody; also called 3B3.2; 3B2
- Kd [2]: 0.31 nM
- Kd [3]: 0.293 nM
- koff [3]: 0.000286 s⁻¹
- kon [3]: 976000 M⁻¹ s⁻¹
- Kd [5]: 0.329 nM
- koff [5]: 0.000301 s⁻¹
- kon [5]: 914000 M⁻¹ s⁻¹

B4: humanized 1B11 antibody variant 9 (h1L/h3H) (antibody, V domains shown)
VH: QVQLVQSGAEVKKPGASVKVSCKASGYTFPIYTMHWIKQAPGQGLEWIGYINPSIGYANYNQKFRDRATLTADKSTSTAYMELSSLRSEDTAVYYCARGGYGDSLFAYWGQGTLVTVSS
VL: DIVMTQSPLSLPVTPGEPASISCRSSKSLLHSNGITYLYWYLQKPGQSPQLLIYQMSNLASGVPDRFSGSGSGTDFTLKISRVEAEDVGVYYCAQNLELPYTFGQGTKLEIK
notes: variable domains only; also called clone 9
- koff [1]: 0.00017 s⁻¹
- Kd [4]: 0.19 nM

B5: humanized 1B11 antibody variant 8 (h1L/h2H) (antibody, V domains shown)
VH: QVQLVQSGAEVKKPGASVKVSCKASGYTFPIYTMHWIRQAPGQGLEWIGYINPSIGYANYNQKFRDRATLTADTSTSTAYMELSSLRSEDTAVYYCARGGYGDSLFAYWGQGTLVTVSS
VL: DIVMTQSPLSLPVTPGEPASISCRSSKSLLHSNGITYLYWYLQKPGQSPQLLIYQMSNLASGVPDRFSGSGSGTDFTLKISRVEAEDVGVYYCAQNLELPYTFGQGTKLEIK
notes: variable domains only; also called clone 8
- koff [1]: 0.00017 s⁻¹
- Kd [4]: 0.29 nM

B6: humanized 1B11 antibody variant 10 (h1L/h4H) (antibody, V domains shown)
VH: QVHLVQSGAEVKKPGASVKVSCKASGYTFPIYTMHWIKQAPGQGLEWIGYINPSIGYANYNQKFRDKATLTADKSTSTAYMELSSLRSEDTAVYYCARGGYGDSLFAYWGQGTLVTVSS
VL: DIVMTQSPLSLPVTPGEPASISCRSSKSLLHSNGITYLYWYLQKPGQSPQLLIYQMSNLASGVPDRFSGSGSGTDFTLKISRVEAEDVGVYYCAQNLELPYTFGQGTKLEIK
notes: variable domains only; also called clone 10
- koff [1]: 0.00015 s⁻¹
- Kd [4]: 0.16 nM

B7: humanized 1B11 antibody variant 14 (h2L/h3H) (antibody, V domains shown)
VH: QVQLVQSGAEVKKPGASVKVSCKASGYTFPIYTMHWIKQAPGQGLEWIGYINPSIGYANYNQKFRDRATLTADKSTSTAYMELSSLRSEDTAVYYCARGGYGDSLFAYWGQGTLVTVSS
VL: DIVMTQSPLSLPVTPGEPASISCRSSKSLLHSNGITYLYWYLQKPGQSPQLLIYQMSNLASGVPDRFSSSGSGTDFTLKISRVEAEDVGVYYCAQNLELPYTFGQGTKLEIK
notes: variable domains only; also called clone 14
- koff [1]: 0.00013 s⁻¹
- Kd [4]: 0.15 nM

B8: humanized 1B11 antibody variant 13 (h2L/h2H) (antibody, V domains shown)
VH: QVQLVQSGAEVKKPGASVKVSCKASGYTFPIYTMHWIRQAPGQGLEWIGYINPSIGYANYNQKFRDRATLTADTSTSTAYMELSSLRSEDTAVYYCARGGYGDSLFAYWGQGTLVTVSS
VL: DIVMTQSPLSLPVTPGEPASISCRSSKSLLHSNGITYLYWYLQKPGQSPQLLIYQMSNLASGVPDRFSSSGSGTDFTLKISRVEAEDVGVYYCAQNLELPYTFGQGTKLEIK
notes: variable domains only; also called clone 13
- koff [1]: 0.00012 s⁻¹
- Kd [4]: 0.2 nM

B9: humanized 1B11 antibody variant 7 (h1L/h1H) (antibody, V domains shown)
VH: QVQLVQSGAEVKKPGASVKVSCKASGYTFPIYTMHWVRQAPGQGLEWMGYINPSIGYANYNQKFRDRVTITADTSTSTAYMELSSLRSEDTAVYYCARGGYGDSLFAYWGQGTLVTVSS
VL: DIVMTQSPLSLPVTPGEPASISCRSSKSLLHSNGITYLYWYLQKPGQSPQLLIYQMSNLASGVPDRFSGSGSGTDFTLKISRVEAEDVGVYYCAQNLELPYTFGQGTKLEIK
notes: also called clone 7; Variant 7 anti-G-CSF antibody
- koff [1]: 0.00017 s⁻¹
- Kd [4]: 0.29 nM

B10: humanized 1B11 antibody variant 15 (h2L/h4H) (antibody, V domains shown)
VH: QVHLVQSGAEVKKPGASVKVSCKASGYTFPIYTMHWIKQAPGQGLEWIGYINPSIGYANYNQKFRDKATLTADKSTSTAYMELSSLRSEDTAVYYCARGGYGDSLFAYWGQGTLVTVSS
VL: DIVMTQSPLSLPVTPGEPASISCRSSKSLLHSNGITYLYWYLQKPGQSPQLLIYQMSNLASGVPDRFSSSGSGTDFTLKISRVEAEDVGVYYCAQNLELPYTFGQGTKLEIK
notes: variable domains only; also called clone 15
- koff [1]: 0.0001 s⁻¹
- Kd [4]: 0.12 nM
